This note sets out measurements from patent publication US20230287376, “IMMOBILIZED ENZYME COMPOSITIONS AND METHODS” (New England Biolabs, Inc., published 2023).

In one series the target is T1, HS-T4 DNA ligase (Enterobacteria phage T4, UniProt P00970 P00970:1-487).
T1 chain: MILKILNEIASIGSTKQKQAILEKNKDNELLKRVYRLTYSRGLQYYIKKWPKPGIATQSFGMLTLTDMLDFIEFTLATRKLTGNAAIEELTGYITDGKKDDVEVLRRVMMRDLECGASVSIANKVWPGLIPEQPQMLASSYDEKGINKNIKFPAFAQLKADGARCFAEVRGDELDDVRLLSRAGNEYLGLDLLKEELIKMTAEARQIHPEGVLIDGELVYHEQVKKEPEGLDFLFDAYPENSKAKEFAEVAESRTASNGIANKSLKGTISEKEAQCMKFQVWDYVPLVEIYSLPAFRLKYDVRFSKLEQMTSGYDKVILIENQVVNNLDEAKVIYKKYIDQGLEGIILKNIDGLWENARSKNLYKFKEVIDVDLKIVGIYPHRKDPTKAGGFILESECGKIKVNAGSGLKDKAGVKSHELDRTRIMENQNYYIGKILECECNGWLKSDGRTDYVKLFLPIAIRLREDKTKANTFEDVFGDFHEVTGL
Put plainly: ligation gel assay to SEQ 3 adaptor; agarose-immobilized form retains activity after 60-100 C, soluble form does not. The following applies: tags: SNAP-tag fusion, soluble or immobilized on BG-agarose. The protocol:
(§1) A FAM-labeled DNA duplex was formed by annealing synthetic oligomer, Gene32FAM-fw3′A, /56-FAMN/CA TGGTGATTACGATTCTTGCCCAGTATGTCAATACATCAGTAAAAATA (SEQ ID NO:1) and Gene32-rv5′p, /5Phos/AT TTTTACTGATGTATTGACATACTGGGCAAGAATCGTAATCAC CATG (SEQ ID NO:2).
(§2) For heat treatment, an aliquot of 15.83 μL from an enzyme master mixture was incubated at 4, 40, 60, 80, 90, 95 or 100° C. for 10 min, followed by addition of 9.17 μL of the DNA substrate mixture. All the ligation reactions were carried out at 4° C. overnight in a shaker. The samples were analyzed by electrophoresis on a 12% Tris-Glycine PAGE (Novex/Invitrogen) in 1×TAE Buffer for 2.5 hours at 25 mA (current). […] In contrast, HS-T4 DNA Ligase immobilized to BG-Agarose beads retained enzymatic activity after treatment in the same range of elevated temperature tested.

Another series concerns the target T2, T4 DNA ligase (Enterobacteria phage T4, UniProt P00970 P00970:1-487).
T2 sequence: T1 chain
Nature of the series: ligation gel assay to SEQ 3 adaptor, 4 C; no activity after 60-100 C pretreatment. The following applies: tags: untagged, NEB M0202. The protocol: as §1, §2

B1: Gene32 FAM duplex + TA adaptor (dsDNA)
DNA 1: CATGGTGATTACGATTCTTGCCCAGTATGTCAATACATCAGTAAAAATA
DNA 2: ATTTTTACTGATGTATTGACATACTGGGCAAGAATCGTAATCACCATG
modifications: 5'-phosphate on SEQ 2
For the molecule B1, the binding result with HS-T4 DNA ligase and in the series with T4 DNA ligase was “binds” in each case.
